Data on 26 molecules can be found in patent publication US20230220057A1 (STAIDSON BEIJING BIOPHARMACEUTICALS, published 2023).

The EC50 is the concentration that produces a half-maximal response. The term Kd denotes the constant that tells how readily two partners part at equilibrium. Broadly, the koff is the first-order rate constant of dissociation. Usually kon stands for the second-order rate constant of association. A high value points to fast association. The IC50 is the concentration at which inhibition is half-maximal. Lower therefore signals higher potency.

Where a chain is given by its changes, count along the chain named.

B1: Ab16 (antibody, human IgG1, V domains shown)
VH: EVQLVQSGAEVKKPGATVKISCKVSGYSFITYWISWVQQAPGKGLEWMGAIDPSDSDARYSPSFQGRVTITADTSTDTAYMELSSLRSEDTAVYYCAKSDPGYSGYSLLYGFDSWGQGTLVTVSS
VL: DVVMTQSPLSLPVTLGQPASISCRSSQSLVQRNGNTYLSWFQQRPGQPPRLLIYQVSNRYSGVPDRFSGSGSGTDFTLKISRVEAEDVGVYYCGQGAHLPLTFGQGTKVEIK
B2: Ab37 (antibody, human IgG1, V domains shown)
VH: B1 VH with S28T, T74K
VL: B1 VL with V2I, P48S
B3: Ab59 (antibody, human IgG1, V domains shown)
VH: EVQLVQSGAEVKKPGESLKISCKISGYSFITYWISWVRQMPGKGLEWMGAIDPSDSDARYSPSFQGQVTISADKSISTAYLQWSSLKASDTAMYYCAKSDPGYSGYSLLYGFDSWGQGTLVTVSS
VL: B1 VL with V2I, F41Y
B4: Ab49 (antibody, human IgG1, V domains shown)
VH: B3 VH with I24G
VL: B1 VL with V2I, F41Y
B5: Ab47 (antibody, human IgG1, V domains shown)
VH: B3 VH with I24G
VL: B1 VL with V2I, P48S
B6: Ab57 (antibody, human IgG1, V domains shown)
VH: B3 VH
VL: B1 VL with V2I, P48S
B7: Ab46 (antibody, human IgG1, V domains shown)
VH: B3 VH with I24G
VL: B1 VL
B8: Ab45 (antibody, human IgG1, V domains shown)
VH: B3 VH with I24G
VL: B1 VL with F41Y
B9: Ab42 (antibody, human IgG1, V domains shown)
VH: B3 VH with I24G
VL: B1 VL with V2I, S7T, L11S, F41Y, S72A
B10: Ab52 (antibody, human IgG1, V domains shown)
VH: B3 VH
VL: B1 VL with V2I, S7T, L11S, F41Y, S72A
B11: Ab56 (antibody, human IgG1, V domains shown)
VH: B3 VH
VL: B1 VL
B12: Ab58 (antibody, human IgG1, V domains shown)
VH: B3 VH
VL: B1 VL with V2I, F41Y, P48S
B13: Ab48 (antibody, human IgG1, V domains shown)
VH: B3 VH with I24G
VL: B1 VL with V2I, F41Y, P48S
B14: Ab60 (antibody, human IgG1, V domains shown)
VH: B3 VH
VL: B1 VL with V2I
B15: Ab6 Fab (Fab, V domains shown)
VH: B1 VH with S28T
VL: B1 VL
B16: Ab44 Fab (Fab, V domains shown)
VH: B3 VH with I24G
VL: B1 VL with F41Y, P48S
B17: Ab36 Fab (Fab, V domains shown)
VH: B1 VH with S28T, T74K
VL: B1 VL
B18: Ab16 Fab (Fab, V domains shown)
VH: B1 VH
VL: B1 VL
B19: Ab46 Fab (Fab, V domains shown)
VH: B3 VH with I24G
VL: B1 VL
B20: Ab61 Fab (Fab, V domains shown)
VH: B1 VH with S28T
VL: B1 VL with G34A, F41Y, P48S
B21: Ab54 Fab (Fab, V domains shown)
VH: B3 VH
VL: B1 VL with F41Y, P48S
B22: Ab10 Fab (Fab, V domains shown)
VH: B1 VH with S28T
VL: B1 VL with V2I
B23: Ab4 Fab (Fab, V domains shown)
VH: B1 VH with S28T
VL: B1 VL with F41Y, P48S
B24: Ab37 Fab (Fab, V domains shown)
VH: B1 VH with S28T, T74K
VL: B1 VL with V2I, P48S
B25: Ab47 Fab (Fab, V domains shown)
VH: B3 VH with I24G
VL: B1 VL with V2I, P48S

Sequence of recombinantly produced human-NGF (P01138 122-241 limits assumed): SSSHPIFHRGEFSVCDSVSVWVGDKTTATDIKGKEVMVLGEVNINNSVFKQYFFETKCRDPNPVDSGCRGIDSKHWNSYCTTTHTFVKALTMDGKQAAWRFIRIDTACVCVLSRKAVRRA
Sequence of human NGF (R&D system) (P01138 122-241 limits assumed): as above

One assay concerns the target human NGF (R&D system) (human, UniProt P01138 122-241). Kind of assay: cell-based or functional assay.
As to B1, the “TF1 Cell Proliferation Inhibition Assay IC50” value stood at 0.3 nM.

For B2, the “TF1 Cell Proliferation Inhibition Assay IC50” value came out at 0.257 nM.

The next assay has as its target recombinantly produced human-NGF (human, UniProt P01138 122-241, limits assumed). Kind of assay: ELISA, human NGF coated, IgG titrated. Here is the method:
NGF binding ELISA assay: In human NGF binding ELISA, Corning 3366 high binding 96 well plates were coated with recombinantly produced human-NGF at 1 μg per ml, 50 μl/well in 1×PBS, and incubated overnight at 4° C. The plates were washed and blocked with 250 μl of 1×PBS/1% BSA at least 30 minutes at room temperature. 50 μl of culture supernatants, after 1:1 diluted by the PBS/BSA diluent, or the purified antibodies diluted serially from a certain concentration with the diluent, were added per well, and incubated at 37° C. for 2 hours. After washing, a secondary antibody, goat anti-human IgG Fc AP (Southern biotech) was applied at a dilution of 1:3000 in PBS/BSA. The plates were incubated for 1 hour at RT and washed. After adding the PNPP substrate, the ODs at 405 nm were read.
NGF binding ELISA assay: NGF binding ELISA assay was performed as described in Example 1.
For orientation: In an ELISA, binding on a coated surface is turned into a signal by an enzyme label.
Take B1: the EC50 worked out at 0.0173 ng/mL.

Turning to B3, the EC50 was found to be 0.0122 ng/mL.

Regarding B4, the EC50 came to 0.00957 ng/mL.

Turning to B5, the EC50 was determined as 0.00942 ng/mL.

For the molecule B6, the EC50 turned out to be 0.011 ng/mL.

Regarding B2, the concentration for a half-maximal effect (EC50) amounted to 0.0317 ng/mL.

B7: the EC50 stood at 0.0169 ng/mL.

B8: the EC50 turned out to be 0.0166 ng/mL.

Regarding B9, the EC50 came out at 0.0132 ng/mL.

As for B10, the EC50 worked out at 0.0206 ng/mL.

As to B11, the EC50 was 0.0145 ng/mL.

B12: the EC50 came out at 0.0153 ng/mL.

As for B13, the EC50 was found to be 0.0156 ng/mL.

For B14, the EC50 worked out at 0.00896 ng/mL.

In a further assay the target is T1, human NGF-Fc protein (human, UniProt P01138 122-241, limits assumed).
T1 construct: not shown: human IgG1 Fc or IgG4 Fc
T1 sequence (P01138 122-241 limits assumed): as above
As to the kind of experiment: BLI (Octet Red), human NGF-Fc captured on anti-human Fc sensors, Fab in solution. Here is the method:
FortéBio BioLayer Interferometry (BLI) technology was chosen as the method for affinity determination by using Octet Red system. NGF is a homodimer protein in its nature form. […] For the purpose of affinity measurement, monovalent Fab fragments of IgG were prepared using Fab preparation kit (Pierce).
After purification, the Fab concentration was determined by OD280 according to the extinction coefficient calculated based on its sequence. […] For each assay, an array of Fab concentrations from about 50 nM to less than 1 nM in kinetic buffer (PALL) were tested by NGF-Fc sensors with the association time of 300 seconds and dissociation time of 1200 seconds. The kinetic data were analyzed using program Data Analysis HT 10.0 according to the manual. All the tests were repeated at least twice in independent assays.
(In general: BLI is a label-free optical method that tracks binding on a fibre tip over time.)
Molecule Tanezumab Fab yielded a Kd of 0.169 nM, a koff of 6.14e-05 s⁻¹ and a kon of 364000 M⁻¹ s⁻¹.

In turn, B15 showed a Kd of 0.866 nM, a koff of 6.33e-05 s⁻¹ and a kon of 73100 M⁻¹ s⁻¹.

In turn, B16 yielded a Kd of 0.704 nM, a koff of 5.9e-05 s⁻¹ and a kon of 83800 M⁻¹ s⁻¹.

Turning to B17, binding was put at a Kd of 0.258 nM, the koff turned out to be 7.35e-05 s⁻¹ and the kon was determined as 285000 M⁻¹ s⁻¹.

B18: the Kd was determined as 1.37 nM, the koff was 7.11e-05 s⁻¹ and the kon was 51700 M⁻¹ s⁻¹.

B19 had a Kd of 2.89 nM, a dissociation rate constant (koff) of 0.000107 s⁻¹ and a kon of 37100 M⁻¹ s⁻¹.

The molecule B20 showed a Kd of 0.139 nM, a koff of 5.13e-05 s⁻¹ and a kon of 370000 M⁻¹ s⁻¹.

B21 returned a Kd of 0.148 nM, a koff of 4.43e-05 s⁻¹ and a kon of 300000 M⁻¹ s⁻¹.

In turn, B22 came in with an off-rate constant (koff) of 7.48e-05 s⁻¹.

Take B23: the Kd came to 0.0746 nM, the koff is 2.99e-05 s⁻¹ and the association rate constant (kon) is 401000 M⁻¹ s⁻¹.

As for B24, the affinity, expressed as Kd, was 3.25 nM; the koff came out at 5.27e-05 s⁻¹; the kon was found to be 16200 M⁻¹ s⁻¹.

The molecule B25 registered a Kd of 3.48 nM, a dissociation rate constant (koff) of 0.000142 s⁻¹ and a kon of 40700 M⁻¹ s⁻¹.

In another assay the target is T2, human NGF-Fc4 (IgG4-Fc) (human, UniProt P01138 122-241, limits assumed).
T2 construct: not shown: human IgG4 Fc
T2 sequence (P01138 122-241 limits assumed): as above
Kind of assay: competition ELISA: antibody pre-incubated with human NGF-Fc4, binding to coated TrkA-Fc. Here is the method:
TrkA inhibition ELISA assay: The TrkA inhibition ELISA assay was designed to identify the anti-NGF antibodies that have the capability of blocking NGF binding to its receptor TrkA. In this assay, human TrkA-Fc (IgG1-Fc, Sinobiological) was coated at 1 μg/ml in the 96-well plates and incubated overnight at 4° C. Antibodies, from cell culture supernatants or after purified, in different dilutions, were pre-incubated with human NGF-Fc4 (IgG4-Fc) at a final concentration of 70 ng/mL for 2 hours in 37° C. A total of 50 μl of the reaction mixtures were then transferred into the TrkA-Fc coated 96-well plates and incubated in room temperature for 2 hours. After washing, a secondary mouse anti-human IgG4-AP (Southern biotech) was added at a dilution of 1:1000 After one hour in room temperature, the plates were washed, and after adding PNPP substrate, ODs at 405 nm were read.
TrkA inhibition ELISA assay: The optimized anti-NGF antibodies Ab4, Ab6, Ab10, Ab16, Ab36, Ab37, Ab44, Ab45, Ab46, Ab47, Ab48, Ab49, Ab52, Ab54, Ab55, Ab56, Ab57, Ab58, Ab59, Ab60, Ab61 and the reference antibody Tanezumab (Pfizer), a humanized antibody from mouse hybridoma were further analyzed for their abilities to block NGF binding to its receptor TrkA. TrkA inhibition assay was performed as described in Example 1.
Take B1: the half-inhibitory concentration (IC50) stood at 73.5 ng/mL.

B3 displayed an IC50 of 74.7 ng/mL.

Molecule B4 gave an IC50 of 87.8 ng/mL.

B5 yielded an IC50 of 66.2 ng/mL.

Molecule B6 had an IC50 of 73.2 ng/mL.

B2: the concentration for half-maximal inhibition (IC50) stood at 132 ng/mL.

B7 came in with a half-maximal inhibitory concentration (IC50) of 53.3 ng/mL.

Regarding B8, the IC50 turned out to be 89.8 ng/mL.

Turning to B9, the IC50 is 77.3 ng/mL. The IC50 values of the last two molecules are within 1.5-fold of each other.

For B10, the IC50 was 70.2 ng/mL. This IC50 and that of the molecule before are within 1.5-fold of each other.

Molecule B11 showed an IC50 of 66.5 ng/mL.

In turn, B12 gave a half-maximal inhibitory concentration (IC50) of 80 ng/mL.

In the case of B13, the IC50 worked out at 93.5 ng/mL.

In turn, B14 came in with an IC50 of 43.4 ng/mL.
